# Test results taken from patent publication US20110207796.
# Target: human alpha-synuclein (wild-type, recombinant)
protein,measurement,value
IKBKB (protein) MSWSPSLTTQTCGAWEMKERLGTGGFGNVIRWHNQETGEQIAIKQCRQELSPRNRERWCLEIQIMRRLTHPNVVAARDVPEGMQNLAPNDLPLLAMEYCQGGDLRKYLNQFENCCGLREGAILTLLSDIASALRYLHENRIIHRDLKPENIVLQQGEQRLIHKIIDLGYAKELDQGSLCTSFVGTLQYLAPELLEQQKYTVTVDYWSFGTLAFECITGFRPFLPNWQPVQWHSKVRQKSEVDIVVSEDLNGTVKFSSSLPYPNNLNSVLAERLEKWLQLMLMWHPRQRGTDPTYGPNGCFKALDDILNLKLVHILNMVTGTIHTYPVTEDESLQSLKARIQQDTGIPEEDQELLQEAGLALIPDKPATQCISDGKLNEGHTLDMDLVFLFDNSKITYETQISPRPQPESVSCILQEPKRNLAFFQLRKVWGQVWHSIQTLKEDCNRLQQGQRAAMMNLLRNNSCLSKMKNSMASMSQQLKAKLDFFKTSIQIDLEKYSEQTEFGITSDKLLLAWREMEQAVELCGRENEVKLLVERMMALQTDIVDLQRSPMGRKQGGTLDDLEEQARELYRRLREKPRDQRTEGDSQEMVRLLLQAIQSFEKKVRVIYTQLSKTVVCKQKALELLPKVEEVVSLMNEDEKTVVRLQEKRQKELWNLLKIACSKVRGPVSGSPDSMNASRLSQPGQLMSQPSTASNSLPEPAKKSEELVAEAHNLCTLLENAIQDTVREQDQSFTALDWSWLQTEEEEHSCLEQAS,"in vitro kinase reaction, phosphorylation of alpha-synuclein",shown to be incapable of directly phosphorylating alpha-synuclein
